Source: article doi:10.1101/2025.04.11.648320 (bioRxiv, 2025)
Where “and” joins values, the source holds several entries; their conditions need not be identical. Identical values can stand only once.

Biological target: the molecule itself
Assay: SDS-PAGE with immunoblot

B1: HIR2-HA expressed in Nicotiana benthamiana (natural protein, Arabidopsis thaliana, UniProt Q9SRH6 1-285, looked up)
chain: MGNLFCCVLVKQSDVAVKERFGKFQKVLNPGLQFVPWVIGDYVAGTLTLRLQQLDVQCETKTKDNVFVTVVASIQYRVLADKASDAFYRLSNPTTQIKAYVFDVIRACVPKLNLDDVFEQKNEIAKSVEEELDKAMTAYGYEILQTLIIDIEPDQQVKRAMNEINAAARMRVAASEKAEAEKIIQIKRAEGEAESKYLSGLGIARQRQAIVDGLRDSVLGFAGNVPGTSAKDVLDMVMMTQYFDTMRDIGATSKSSAVFIPHGPGAVSDVAAQIRNGLLQANNAS
  stoichiometry N: 2 and 4 and 6
